The text below walks through data of US9739779B2, “Methods of screening for Janus kinase 3 interacting compounds” (priority 2013, dated 2017).

Experiment [1] has as its target T1, P-Villin (Homo sapiens, UniProt P09327).
T1 construct: made in house; host or cells: E. coli TKX1 (pGEX2T vector)
T1 sequence (P09327 1-827): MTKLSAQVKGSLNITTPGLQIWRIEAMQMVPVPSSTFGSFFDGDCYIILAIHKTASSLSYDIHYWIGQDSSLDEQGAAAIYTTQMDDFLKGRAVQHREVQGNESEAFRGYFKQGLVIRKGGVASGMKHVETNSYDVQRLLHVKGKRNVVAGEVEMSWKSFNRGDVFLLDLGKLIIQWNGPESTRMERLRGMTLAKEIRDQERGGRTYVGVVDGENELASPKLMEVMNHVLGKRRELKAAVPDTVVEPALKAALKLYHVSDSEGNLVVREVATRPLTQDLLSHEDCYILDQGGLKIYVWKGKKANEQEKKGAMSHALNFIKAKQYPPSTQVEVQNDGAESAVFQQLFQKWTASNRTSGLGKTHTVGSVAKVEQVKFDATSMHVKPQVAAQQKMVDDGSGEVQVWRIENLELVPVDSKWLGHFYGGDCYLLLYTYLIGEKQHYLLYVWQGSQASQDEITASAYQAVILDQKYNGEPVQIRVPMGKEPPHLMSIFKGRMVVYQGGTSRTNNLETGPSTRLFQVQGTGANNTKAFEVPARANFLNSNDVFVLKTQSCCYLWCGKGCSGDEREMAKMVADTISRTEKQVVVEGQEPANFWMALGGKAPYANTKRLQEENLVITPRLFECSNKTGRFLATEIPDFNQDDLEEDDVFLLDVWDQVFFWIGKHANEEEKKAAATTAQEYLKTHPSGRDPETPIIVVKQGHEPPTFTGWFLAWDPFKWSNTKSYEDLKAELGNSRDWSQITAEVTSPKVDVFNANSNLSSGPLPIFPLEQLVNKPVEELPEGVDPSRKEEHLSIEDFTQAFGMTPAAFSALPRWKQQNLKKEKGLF
Briefly: Multiplate ELISA binding of GST-Jak3 and truncated Jak3 fusion proteins to P-Villin. As for the experimental part:
Absorbance values for wells containing P-Villin contacted with GST alone were used as control, and data presented on the ordinate axis represent absorbance values after subtraction of control values.
(§1) To determine the ability of Jak3 to interact with natural compounds including biomolecules, binding studies were performed in a multiplate using the cytoskeletal protein, Villin, known in the art to be a substrate for P-Jak3. Multiplates pre-coated with P-Villin were contacted with increasing concentrations of GST-P-Jak3 fusion protein (test samples) or GST alone (control sample). Binding levels were measured using GST antibody as the primary binding partner, horse radish peroxidase conjugated antibody as the secondary binding partner and 3,3′,5,5′-tetramethylbenzidine as the colorimetric substrate. Raw absorbance data for the control samples were subtracted from the absorbance for the test samples to obtain the corrected absorbance values.
To determine whether the kinase domains of Jak3 are critical for Villin binding, recombinant GST-truncated-Jak3 fusion proteins shown in FIGS. 2C-2E were expressed in BL21 (for non-phosphorylated proteins) or TKX1 (for phosphorylated proteins) cells, and purified. Multiplates pre-coated with P-Villin were contacted with these GST-tagged recombinant truncated-Jak3 or with GST-tagged recombinant WT-Jak3, and binding measured as described supra.

The target of experiment [2] is T2, GST-P-Jak3 fusion protein (Mus musculus, UniProt Q62137).
T2 construct: made in house; host or cells: E. coli TKX1 (pGEX-4T vector)
Description: Multiplate ELISA binding of P-Villin to GST-P-Jak3. As for the experimental part: GST is the reporter protein and the primary binding partner is a GST antibody.
as §1

T2 sequence (Q62137 with tags, fused parts or gaps): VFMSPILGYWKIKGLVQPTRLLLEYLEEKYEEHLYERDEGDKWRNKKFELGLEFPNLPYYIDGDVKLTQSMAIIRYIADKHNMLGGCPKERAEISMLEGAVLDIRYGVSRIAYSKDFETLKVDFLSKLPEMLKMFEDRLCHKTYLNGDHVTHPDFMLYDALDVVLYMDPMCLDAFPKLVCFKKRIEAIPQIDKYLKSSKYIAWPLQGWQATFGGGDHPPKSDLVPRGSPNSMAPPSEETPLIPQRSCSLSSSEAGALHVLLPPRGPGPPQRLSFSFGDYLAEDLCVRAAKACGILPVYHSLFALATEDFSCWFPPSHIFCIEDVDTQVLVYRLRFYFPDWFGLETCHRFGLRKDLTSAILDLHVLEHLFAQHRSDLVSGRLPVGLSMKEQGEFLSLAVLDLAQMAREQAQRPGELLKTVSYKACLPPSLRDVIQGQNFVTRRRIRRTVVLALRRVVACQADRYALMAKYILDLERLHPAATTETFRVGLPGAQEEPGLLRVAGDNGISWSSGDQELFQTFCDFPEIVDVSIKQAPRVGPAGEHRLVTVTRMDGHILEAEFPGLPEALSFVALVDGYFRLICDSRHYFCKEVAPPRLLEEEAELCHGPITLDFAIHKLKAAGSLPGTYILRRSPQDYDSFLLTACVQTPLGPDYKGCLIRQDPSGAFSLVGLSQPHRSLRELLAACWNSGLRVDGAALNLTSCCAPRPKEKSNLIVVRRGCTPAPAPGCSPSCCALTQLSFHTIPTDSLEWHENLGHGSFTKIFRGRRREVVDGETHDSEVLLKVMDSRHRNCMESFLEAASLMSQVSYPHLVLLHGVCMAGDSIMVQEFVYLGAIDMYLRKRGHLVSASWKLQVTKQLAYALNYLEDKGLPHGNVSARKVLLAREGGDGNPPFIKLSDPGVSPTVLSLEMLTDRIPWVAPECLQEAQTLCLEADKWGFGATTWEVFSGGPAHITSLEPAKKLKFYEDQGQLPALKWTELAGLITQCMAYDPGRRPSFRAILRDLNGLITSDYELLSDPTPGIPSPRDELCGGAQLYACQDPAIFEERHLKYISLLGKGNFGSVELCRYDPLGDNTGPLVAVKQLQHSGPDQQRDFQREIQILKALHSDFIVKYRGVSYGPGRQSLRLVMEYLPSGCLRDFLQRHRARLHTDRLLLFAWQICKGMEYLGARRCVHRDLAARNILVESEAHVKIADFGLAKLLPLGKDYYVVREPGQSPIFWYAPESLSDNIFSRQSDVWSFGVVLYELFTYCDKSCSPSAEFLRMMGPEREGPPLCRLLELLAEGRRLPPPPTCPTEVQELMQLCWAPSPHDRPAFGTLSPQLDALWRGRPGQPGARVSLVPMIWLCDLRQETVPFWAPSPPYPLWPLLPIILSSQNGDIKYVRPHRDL

Consider “P-WT-Jak3: phosphorylated GST-WT-Jak3 fusion protein (SEQ ID NO: 11) expressed in TKX1”, for which the equilibrium dissociation constant (Kd) in experiment [1] (plates pre-coated with P-Villin, read-out: dissociation constant (Kd)) turned out to be 23 nM.

As to “WT-Jak3: non-phosphorylated GST-WT-Jak3 fusion protein (SEQ ID NO. 7) expressed in BL21”, the “level of binding to P-Villin” value in experiment [1] (FIG. 8A, GST-alone control subtracted) is on record as “relatively lower level of binding”.

B1: P-Villin: recombinant phosphorylated cytoskeletal protein Villin expressed in E. coli TKX1 (protein)
chain: MTKLSAQVKGSLNITTPGLQIWRIEAMQMVPVPSSTFGSFFDGDCYIILAIHKTASSLSYDIHYWIGQDSSLDEQGAAAIYTTQMDDFLKGRAVQHREVQGNESEAFRGYFKQGLVIRKGGVASGMKHVETNSYDVQRLLHVKGKRNVVAGEVEMSWKSFNRGDVFLLDLGKLIIQWNGPESTRMERLRGMTLAKEIRDQERGGRTYVGVVDGENELASPKLMEVMNHVLGKRRELKAAVPDTVVEPALKAALKLYHVSDSEGNLVVREVATRPLTQDLLSHEDCYILDQGGLKIYVWKGKKANEQEKKGAMSHALNFIKAKQYPPSTQVEVQNDGAESAVFQQLFQKWTASNRTSGLGKTHTVGSVAKVEQVKFDATSMHVKPQVAAQQKMVDDGSGEVQVWRIENLELVPVDSKWLGHFYGGDCYLLLYTYLIGEKQHYLLYVWQGSQASQDEITASAYQAVILDQKYNGEPVQIRVPMGKEPPHLMSIFKGRMVVYQGGTSRTNNLETGPSTRLFQVQGTGANNTKAFEVPARANFLNSNDVFVLKTQSCCYLWCGKGCSGDEREMAKMVADTISRTEKQVVVEGQEPANFWMALGGKAPYANTKRLQEENLVITPRLFECSNKTGRFLATEIPDFNQDDLEEDDVFLLDVWDQVFFWIGKHANEEEKKAAATTAQEYLKTHPSGRDPETPIIVVKQGHEPPTFTGWFLAWDPFKWSNTKSYEDLKAELGNSRDWSQITAEVTSPKVDVFNANSNLSSGPLPIFPLEQLVNKPVEELPEGVDPSRKEEHLSIEDFTQAFGMTPAAFSALPRWKQQNLKKEKGLF
B1: the Kd in experiment [2] (plates pre-coated with P-Villin, P-Jak3 0-400 nM, GST control subtracted, read-out: dissociation constant (Kd)) worked out at 23 nM. Further, the “Hill coefficient (h)” value in experiment [2] (rearranged Hill equation plot) is given as 3.7.
